Test [1] has as its target T1, human Notch2 on U-87 MG cells (human, UniProt Q04721 26-2471). Kind of test: cell-based or functional assay.
Test [2] addresses T1, human Notch2 on U-87 MG cells. Kind of test: KinExA equilibrium whole-cell analysis on Notch2-expressing U-87 cells. The protocol:
After incubation, the cells were centrifuged and the supernatants, containing the free fraction of antibody or Fab construct, were removed without disturbing the cell pellets and transferred onto a KinExA 3200 instrument with autosampler (Sapidyne Instruments Inc). Each supernatant was flowed over a solid phase composed of polystyrene beads (#440176, Sapidyne Instruments Inc) coated with biotinylated goat anti-human Immunoglobulin G (IgG) heavy+light (H+L) (#109-065-003, Jackson ImmunoResearch Laboratories Inc.) or biotinylated Notch2 extracellular domain to capture the free antibody or Fab construct. […] The fluorescent signals were recorded and converted to a voltage signal that is directly proportional to the amount of free antibody or Fab construct in the equilibrated sample. Using the built in Equilibrium Whole Cell analysis method, the KinExA Pro software performed a least squares analysis on the measured data to fit optimal solutions for the KD and the activity of the free antibody or Fab construct to a curve representative of a 1:1 reversible bi-molecular interaction. […] A N-curve analysis was applied for the testing of the two concentrations of antibody or Fab construct to determine the KD on Notch2-expressing U-87 cells.
The binding kinetics were determined using a similar assay format as the one used for the equilibrium analysis, with the exception that measurements were collected “pre-equilibrium” and the binding signals were plotted as a function of time. For the KinExA direct method, anti-Notch2 antibody and Fab formats were incubated with Notch2-expressing U-87 cells at a fixed concentration (Table 12) and aliquots of the cell binding solution were collected at different time points to determine the fraction of free antibody or Fab format. The KinExA Pro software was then used to determine the association rate constant (Kₒₙ).

For test [3] the target is unchanged. Kind of test: cell-based or functional assay. The source holds these as a separate data set.
The target is the same in test [4]. The experiment in a line: cell-based or functional assay. This is another data set of the same source.
The target of the next test is T2, huNotch2-EGF4-7 (human).
T2 chain: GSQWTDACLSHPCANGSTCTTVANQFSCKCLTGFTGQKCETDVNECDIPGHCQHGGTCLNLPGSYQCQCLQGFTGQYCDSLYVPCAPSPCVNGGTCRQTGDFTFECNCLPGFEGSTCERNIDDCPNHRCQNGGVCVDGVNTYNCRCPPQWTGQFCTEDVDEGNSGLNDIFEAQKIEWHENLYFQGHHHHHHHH
The experiment in a line: SPR BIAcore, antibody captured on protein A, 37 C. The protocol:
(§1) Binding of the anti-Notch2 antibodies to Notch2 from additional species and to constructs comprising different EGF repeat regions was evaluated by BIAcore™. For this experiment, the antibodies with human constant regions were captured on a protein A chip to achieve approximately 200 RU. Ten-fold serial dilutions of various antigens were injected in HIBS-P buffer with additional 3 mM CaCl₂ at 37° C. with a flow rate of 100 μL/min.
For orientation: In SPR one partner is held on a chip, and binding of the other changes the refractive index at the surface.

A further test addresses T3, huNotch2-EGF5-8 (human).
T3 chain: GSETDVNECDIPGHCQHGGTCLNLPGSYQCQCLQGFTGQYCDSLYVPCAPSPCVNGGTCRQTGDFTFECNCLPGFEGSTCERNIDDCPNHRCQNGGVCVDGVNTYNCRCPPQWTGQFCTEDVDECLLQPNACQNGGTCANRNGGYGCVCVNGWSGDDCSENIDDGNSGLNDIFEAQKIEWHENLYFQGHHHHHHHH
Kind of test: SPR BIAcore, antibody captured on protein A, 37 C. The protocol:
as §1

For the next test, the target named is T4, huNotch2-EGF7-9 (human).
T4 chain: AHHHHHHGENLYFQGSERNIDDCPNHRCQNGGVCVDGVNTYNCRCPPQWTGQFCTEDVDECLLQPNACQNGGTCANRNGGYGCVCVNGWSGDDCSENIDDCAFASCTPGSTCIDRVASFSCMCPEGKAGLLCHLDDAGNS
Kind of test: SPR BIAcore, antibody captured on protein A, 37 C. The protocol:
as §1

In the next test the target is T5, muNotch2-EGF6-12.K268R (mouse).
T5 chain: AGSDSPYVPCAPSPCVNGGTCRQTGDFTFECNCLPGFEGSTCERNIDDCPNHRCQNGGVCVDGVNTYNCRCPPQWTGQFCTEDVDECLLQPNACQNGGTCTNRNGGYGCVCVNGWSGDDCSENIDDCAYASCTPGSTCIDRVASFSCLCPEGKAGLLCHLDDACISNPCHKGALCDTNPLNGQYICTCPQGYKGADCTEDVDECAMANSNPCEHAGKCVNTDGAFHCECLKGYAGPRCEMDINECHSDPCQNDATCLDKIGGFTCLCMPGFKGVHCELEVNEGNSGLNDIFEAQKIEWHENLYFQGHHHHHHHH
The experiment in a line: SPR BIAcore, antibody captured on protein A, 37 C. The protocol:
as §1

The target in a further test is T6, gpNotch2-EGF6-12 (guinea pig).
T6 construct: also called guinea pig Notch2 EGF6-12
T6 chain: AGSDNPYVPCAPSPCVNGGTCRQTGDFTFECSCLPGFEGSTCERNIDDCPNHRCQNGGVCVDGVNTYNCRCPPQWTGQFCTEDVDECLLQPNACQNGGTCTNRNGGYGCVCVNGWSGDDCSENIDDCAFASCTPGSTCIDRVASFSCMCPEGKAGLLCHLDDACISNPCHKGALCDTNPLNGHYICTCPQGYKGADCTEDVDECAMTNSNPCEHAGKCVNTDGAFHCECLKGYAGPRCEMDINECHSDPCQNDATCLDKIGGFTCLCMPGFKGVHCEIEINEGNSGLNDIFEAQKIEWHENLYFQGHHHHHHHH
Kind of test: SPR BIAcore, antibody captured on protein A, 37 C. Here is the method:
as §1

Test [5] deals with T7, huNotch2-EGF6-10 (human, UniProt Q04721 219-418).
T7 construct: also called human Notch2 EGF6-10
T7 sequence: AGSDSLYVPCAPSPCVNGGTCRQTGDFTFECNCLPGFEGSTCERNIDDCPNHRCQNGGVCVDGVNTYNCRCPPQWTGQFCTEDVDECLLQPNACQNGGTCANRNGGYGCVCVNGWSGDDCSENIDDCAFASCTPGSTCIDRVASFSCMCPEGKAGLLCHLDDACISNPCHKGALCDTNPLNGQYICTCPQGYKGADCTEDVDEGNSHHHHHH
The experiment in a line: SPR BIAcore T200, antibody captured on protein A, 37 C. The protocol:
(§2) The binding affinities of the antibodies was determined by BIAcore™ T200 machine. Rabbit antibodies were expressed as chimeric antibodies with rabbit variable domains and human constant domains. Rat antibodies were expressed as chimeric antibodies with rat variable domains and human constant regions. Humanized antibodies were expressed in the human IgG1 backbone. For kinetics measurements, antibodies were captured on research grade protein A chip (GE Healthcare) to achieve approximately 300 RU. Ten-fold serial dilutions of huNotch2-EGF6-10 were injected in HBS-P buffer with additional 3 mM CaCl₂ at 37° C. with a flow rate of 100 μL/min. Association rates (ka) and dissociation rates (kd) were calculated using a 1:1 Langmuir binding model (BIAcore™ T200 Evaluation Software version 2.0). The equilibrium dissociation constant (KD) was calculated as the ratio kd/ka.

The target in test [6] is T7, huNotch2-EGF6-10. The experiment in a line: SPR BIAcore, separate experiment, substantially as for Table 4. The protocol:
as §2
In a separate experiment, the binding affinities of the humanized versions of the rat 3107 antibody were determined, substantially as described above.

Read-outs that look alike come from different tables or passages of the source.

T1 sequence (Q04721 26-2471): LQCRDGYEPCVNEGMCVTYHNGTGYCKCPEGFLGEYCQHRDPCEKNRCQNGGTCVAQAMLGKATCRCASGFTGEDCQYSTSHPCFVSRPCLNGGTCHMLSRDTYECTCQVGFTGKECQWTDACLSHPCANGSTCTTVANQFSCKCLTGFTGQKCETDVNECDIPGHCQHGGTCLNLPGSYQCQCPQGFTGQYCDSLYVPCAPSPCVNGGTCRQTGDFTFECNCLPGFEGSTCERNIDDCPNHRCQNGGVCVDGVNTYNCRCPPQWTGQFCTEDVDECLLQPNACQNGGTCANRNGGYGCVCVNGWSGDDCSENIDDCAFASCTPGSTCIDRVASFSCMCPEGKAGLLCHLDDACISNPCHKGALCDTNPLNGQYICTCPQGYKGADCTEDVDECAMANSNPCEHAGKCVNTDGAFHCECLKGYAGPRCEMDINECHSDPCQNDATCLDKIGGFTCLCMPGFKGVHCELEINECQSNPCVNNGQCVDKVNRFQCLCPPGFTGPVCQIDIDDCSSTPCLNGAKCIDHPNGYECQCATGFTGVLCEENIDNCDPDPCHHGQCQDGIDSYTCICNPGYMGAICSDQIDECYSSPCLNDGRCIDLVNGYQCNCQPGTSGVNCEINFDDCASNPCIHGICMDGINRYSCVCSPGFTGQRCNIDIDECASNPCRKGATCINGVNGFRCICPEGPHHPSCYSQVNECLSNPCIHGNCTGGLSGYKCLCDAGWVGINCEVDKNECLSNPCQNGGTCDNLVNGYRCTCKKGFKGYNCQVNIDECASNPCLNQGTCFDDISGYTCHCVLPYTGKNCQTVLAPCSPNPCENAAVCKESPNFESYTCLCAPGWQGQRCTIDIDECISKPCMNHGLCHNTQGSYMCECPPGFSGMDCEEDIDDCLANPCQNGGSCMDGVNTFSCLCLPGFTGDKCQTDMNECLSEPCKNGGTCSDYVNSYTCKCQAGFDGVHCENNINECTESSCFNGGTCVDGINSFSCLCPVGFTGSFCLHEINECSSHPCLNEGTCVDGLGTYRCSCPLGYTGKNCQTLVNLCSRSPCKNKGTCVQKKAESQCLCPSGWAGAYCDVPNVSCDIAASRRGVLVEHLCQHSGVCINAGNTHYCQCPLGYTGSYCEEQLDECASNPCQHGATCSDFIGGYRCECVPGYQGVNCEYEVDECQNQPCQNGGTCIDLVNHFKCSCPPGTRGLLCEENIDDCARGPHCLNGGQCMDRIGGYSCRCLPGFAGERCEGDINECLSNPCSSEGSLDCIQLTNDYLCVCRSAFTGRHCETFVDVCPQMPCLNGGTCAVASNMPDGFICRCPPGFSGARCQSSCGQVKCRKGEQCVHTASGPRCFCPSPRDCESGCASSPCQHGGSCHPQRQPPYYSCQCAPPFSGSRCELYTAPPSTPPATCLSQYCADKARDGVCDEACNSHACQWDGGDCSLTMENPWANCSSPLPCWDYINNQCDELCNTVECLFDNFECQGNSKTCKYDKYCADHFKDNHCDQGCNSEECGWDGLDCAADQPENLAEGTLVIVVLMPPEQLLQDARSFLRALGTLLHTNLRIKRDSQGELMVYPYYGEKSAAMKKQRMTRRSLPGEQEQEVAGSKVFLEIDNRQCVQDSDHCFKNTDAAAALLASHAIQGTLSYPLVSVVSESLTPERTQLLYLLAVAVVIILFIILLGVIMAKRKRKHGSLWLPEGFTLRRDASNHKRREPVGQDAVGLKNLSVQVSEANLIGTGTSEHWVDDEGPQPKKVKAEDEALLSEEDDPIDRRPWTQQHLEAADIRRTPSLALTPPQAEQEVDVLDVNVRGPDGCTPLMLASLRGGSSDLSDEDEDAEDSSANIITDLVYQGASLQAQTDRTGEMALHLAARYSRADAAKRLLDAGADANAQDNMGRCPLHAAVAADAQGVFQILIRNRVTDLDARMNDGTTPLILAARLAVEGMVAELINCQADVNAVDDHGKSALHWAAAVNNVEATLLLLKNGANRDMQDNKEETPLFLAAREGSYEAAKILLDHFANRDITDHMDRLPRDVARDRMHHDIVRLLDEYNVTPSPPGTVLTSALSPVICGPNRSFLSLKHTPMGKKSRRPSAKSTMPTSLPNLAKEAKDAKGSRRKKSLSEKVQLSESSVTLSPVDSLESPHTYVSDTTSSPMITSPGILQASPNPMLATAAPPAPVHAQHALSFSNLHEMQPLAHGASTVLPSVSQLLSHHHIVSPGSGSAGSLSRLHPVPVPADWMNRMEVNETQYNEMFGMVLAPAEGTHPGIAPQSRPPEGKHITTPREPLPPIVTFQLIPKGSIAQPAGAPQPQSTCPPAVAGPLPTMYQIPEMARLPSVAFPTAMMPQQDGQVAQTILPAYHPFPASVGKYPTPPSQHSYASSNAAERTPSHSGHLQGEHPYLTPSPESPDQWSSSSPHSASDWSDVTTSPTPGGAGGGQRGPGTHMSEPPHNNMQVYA

B1: 1B2.v104.huFab.LC_K149C.dPEG_trimer (other)
heavy: EVQLVESGGGLVQPGGSLKLSCAVSGFTFSDFYMEWVRQASGKGLEWVAAQRNKANDFSIVYSASVKDRFTISRDDSKSTLYLQMNSLKTEDTAVYYCSRDGGKLALDAWGQGTLVTVSSASTKGPSVFPLAPSSKSTSGGTAALGCLVKDYFPEPVTVSWNSGALTSGVHTFPAVLQSSGLYSLSSVVTVPSSSLGTQTYICNVNHKPSNTKVDKKVEPKSCD
light: DIQMTQSPSSVSASVGDRVTITCQTSEDIYSGLAWYQQKPGKSPKLLIYGASRLQDGVPSRFSGSGSGTDYTLTISSLQPEDFATYYCQQGFKYPLTFGGGTKVEIKRTVAAPSVFIFPPSDEQLKSGTASVVCLLNNFYPREAKVQWCVDNALQSGNSQESVTEQDSKDSTYSLSSTLTLSKADYEKHKVYACEVTHQGLSSPVTKSFNRGEC
modifications: engineered Cys (K149C) joined through maleimide to Tri(Mal-PEG2-amide)-amine
notes: also called 1B2.v104 Fab trimer; aN2.1B2.Fab-trimer
As a reminder, the Kd is a measure of binding affinity in units of concentration. On to B1, for which, in test [1], the “DLL Inhibition (IC50)” value was > 700 nM and the “Jag1 Inhibition (IC50)” value is 0.5 nM. The Kd in [2] was 0.0335 nM.

B2: rat.3107 (rat/human chimeric anti-Notch2 antibody 3107) (antibody, V domains shown)
VH: QVQLQQSGAELAKSGSSVKISCKASGYTFSNYVIHWIKQTTGQAPEWTGYIIPGSGGTKFNEKFKGKATLTVDKSSTTAYMQLSSLTPVDTAVYYCARDGAGSFTYWGQGTLVTVSS
VL: DVLMTQTPVSLPVSLGGQVSISCRSSQSLVHSDGNTYLHWFLQKPGQSPQLLIYRISNRFSGVPDRFSGSGSGTDFTLKISRVEPEDLGVYYCLQSTHFPDTFGGGTKVEIK
As usually defined, the koff is the rate constant with which the complex falls apart. Usually kon stands for a measure of how fast the partners come together. High values mean faster complex formation, low ones slower complex formation. Turning to B2, the “Jagged1 IC50” value in test [3] was found to be 2.1 nM; in test [4] it was 4.88 nM. Besides, the binding result with huNotch2-EGF4-7, with huNotch2-EGF5-8, with huNotch2-EGF7-9, in the test with muNotch2-EGF6-12.K268R and with gpNotch2-EGF6-12 was “binds” in each case. Also, the equilibrium dissociation constant (Kd) was determined as 5 nM with huNotch2-EGF6-10 [5] and 9.12 nM in the test with huNotch2-EGF6-10 [6]. For the same molecule, the koff worked out at 0.00182 s⁻¹ with huNotch2-EGF6-10 [5] and 0.00312 s⁻¹ with huNotch2-EGF6-10 [6]. In addition, the kon in the test with huNotch2-EGF6-10 [5] is 363000 M⁻¹ s⁻¹; with huNotch2-EGF6-10 [6], 342000 M⁻¹ s⁻¹.

B3: hu1B2.v102 (antibody, V domains shown)
VH: EVQLVESGGGLVQPGGSLKLSCAVSGFTFSDFYMEWVRQASGKGLEWVAAQRNKANDFSIVYSASVKDRFTISRDDSKSTLYLQMNSLKTEDTAVYYCSRDGGRLALDAWGQGTLVTVSS
VL: DIQMTQSPSSVSASVGDRVTITCQTSEDIYSGLAWYQQKPGKSPKLLIYGASRLQDGVPSRFSGSGSGTDYTLTISSLQPEDFATYYCQQGFKYPLTFGGGTKVEIK
notes: Human IgG1 backbone
In the case of B3, the “Jagged1 IC50” value in [3] is 1.59 nM. In addition, the binding result in the test with huNotch2-EGF4-7, with huNotch2-EGF5-8, with huNotch2-EGF7-9, with muNotch2-EGF6-12.K268R and in the test with gpNotch2-EGF6-12 was “binds” each time. In the test with huNotch2-EGF6-10 [5], this molecule had a Kd of 3.37 nM. In addition, in the test with huNotch2-EGF6-10 [5], the off-rate (koff) stood at 0.00131 s⁻¹. This molecule had a kon with huNotch2-EGF6-10 [5] of 387000 M⁻¹ s⁻¹.

B4: hu1B2.v104 (antibody, V domains shown)
VH: EVQLVESGGGLVQPGGSLKLSCAVSGFTFSDFYMEWVRQASGKGLEWVAAQRNKANDFSIVYSASVKDRFTISRDDSKSTLYLQMNSLKTEDTAVYYCSRDGGKLALDAWGQGTLVTVSS
VL: DIQMTQSPSSVSASVGDRVTITCQTSEDIYSGLAWYQQKPGKSPKLLIYGASRLQDGVPSRFSGSGSGTDYTLTISSLQPEDFATYYCQQGFKYPLTFGGGTKVEIK
notes: Human IgG1 backbone; also called hu1B2.v014
As to B4, in [3], the “Jagged1 IC50” value was 2.48 nM. The binding result with huNotch2-EGF4-7, with huNotch2-EGF5-8, in the test with huNotch2-EGF7-9, in the test with muNotch2-EGF6-12.K268R and with gpNotch2-EGF6-12 was “binds” throughout. Binding in the test with huNotch2-EGF6-10 [5] was characterised by a dissociation constant (Kd) of 3.09 nM. Besides, the koff in the test with huNotch2-EGF6-10 [5] came to 0.0011 s⁻¹. The same molecule came in with a kon with huNotch2-EGF6-10 [5] of 357000 M⁻¹ s⁻¹.
